Data from publication PMC4967043.

Biological target: (SIM)m, m = 1
Test: ITC

A Kd of 10 µM was found for “(SUMO)m, m = 1 (from UniProt P55854 1-92) (natural protein)” in this work.
